Drawing on US10414821 (dated 2019), this text covers IC50 and EC50 for 1 molecule.

One assay addresses PD-1 protein (UniProt Q15116 25-167). Description: blocking ELISA (PD-1/PD-L1). On the technique in general: An ELISA detects its analyte on a solid surface through an enzyme-linked reagent.
The target of assay [1] is purified recombinant PD-1 fusion protein (Sino Biological Inc, Cat #: 10377-H08H) (human, UniProt Q15116 25-170). The experiment in a line: ELISA.
Chain of purified recombinant PD-1 fusion protein (Sino Biological Inc, Cat #: 10377-H08H) (Q15116 25-170): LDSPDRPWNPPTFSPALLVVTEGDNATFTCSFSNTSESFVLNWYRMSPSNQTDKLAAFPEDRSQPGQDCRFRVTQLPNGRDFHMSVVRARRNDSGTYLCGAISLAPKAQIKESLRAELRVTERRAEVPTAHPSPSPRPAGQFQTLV

Chain of PD-1 protein (Q15116 25-167): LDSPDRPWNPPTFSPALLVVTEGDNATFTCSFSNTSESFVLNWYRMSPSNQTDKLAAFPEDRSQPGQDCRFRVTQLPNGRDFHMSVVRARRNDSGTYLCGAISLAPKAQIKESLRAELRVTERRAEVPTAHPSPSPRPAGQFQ

B1: BA08-1 (antibody, V domains shown)
VH: QVQLVQSGAEVKKPGASVKVSCKASGYTFTSYYMYWVRQAPGQGLEWMGGVNPSNGGTNFNEKFKSRVTITADKSTSTAYMELSSLRSEDTAVYYCARRDYRYDMGFDYWGQGTTVTVSS
VL: EIVLTQSPATLSLSPGERATISCRASKGVSTSGYSYLHWYQQKPGQAPRLLIYLASYLESGVPARFSGSGSGTDFTLTISSLEPEDFATYYCQHSRELPLTFGTGTKVEIK
The IC50 is the concentration that gives 50% inhibition. As a reminder, the EC50 is the concentration needed to bring the measured effect to its halfway point. The molecule B1 registered a 50% inhibitory concentration (IC50) with PD-1 protein of 288 pM. Moreover, in assay [1], the concentration for a half-maximal effect (EC50) was 37.1 pM.
